Test results: a protein production outcome set (Wang et al. 2014)

Experiment: label from the status in PepcDB records

| Sequence | protein production |
| --- | --- |
| MTKLERMEHPAYSQLRPVTPSASVVLCPNPGYSSLEGTNSWVIRAPEDPRSIVIDPGPEDEGHLNVLHSKAEEVGLILLTHRHYDHADGAQRFRQLTNAPVRAMDPSYCAGAEEIHDGEIITIDGVTPQIEVVATPGHTRDSVSYFIWSGVPHESTLEGIVSGDTIAGRHTTMISETDGDLGEYLNSLAILEERGKDIPLLPGHGPDGQDVSSFARKYIERRELRLNQIREVWETRGRDVSMKDLIDAIYDDVDPVLRGAAEQSTHVAIRYLQAQEASASN | failed |
| MKYLHFTRPTIKVIFMINSIKTLLLIATLAILSACGWHFQQSVTMPSEWRTLALESDDSYNDFTVIMRRKLQENQVNVVNLEQNIPILRINKQITSDQVASIFKHGREAEKLLMLEVEATFRLANGESYPINAKVNRTFFDNARAALAKSEEREVIWNDMREQVARQLIVKIIALQNQIKRKLEHHHHHH | failed |
| MLLVGVAIAFLHKYIVLVVLTSILITACQGDIIDNPNLESNVPQSTDCRVVEHAVGKTKICGKPKKIAVLEPKMLSLMLALDVQPAAYADAYLVNAPQFDNPSQQIPYLGKYVTSQPINLGDRSSPSLEALTLLKPDLILGLNYQDNQLFSAIAPTVFIDNEQNWQESIKIVAKALDSQKNIPSIITSQQQQLAKVRAQLESLVSTHPRVLNIVCSQLMDYIEVTYNGNTIEILEKIGFQPVFLPDIERKPGLRPQITLETLAQLDADIVIVNTWVDNWNGKSTYTVPLKELKQKWAKNPLLHNSQAWKEGRVYFVDYTLWGNVIGAPIANALILEQLPSLLLSNTLKP | failed |
| MDMYSMKISEGVERIDGVTANSYLLTLDGKNILIDTGTAGGGKKIIDYFNKNGTKPDYVIVTHHHADHVGGLKEISERFNPEIYVPDLEMKIIRGEEDPPKPRSFFGRMITGMLKFEPVKDVKPVSKASIPGIEEMATPGHTIGSTSYIVEDLHILFSGDAAVESGGELKINKSFSYEINSAERSLEIIKGMKGYLVLPGHGDKVQLLEHHHHHH | not failed |
| MTKLSDRLMEIYRLINQAARVADIGTDHAAIPIALLETNKSSFLVATDIGLGPLEKAKEQIELADLDQAKQIVLRLGDGLSVIKASDKIDTVVIAGMGGELIAKIISKIPDYLKNAKFILQPNNEEIDVRKAIEKNGQYIETEKIIYENRHFYEIIVAKRSQQGIVKMTNRELRFGPCLLKHRTSTFKNKWQERLDHSKQIEKILEKSLRTSTKRYDSLQAEIKTIEEALK | not failed |
| MFISDKSRPTDFYKDDHHNSSTTSTTRDMMIDVLTTTNESVDLQSHHHHNHHNHHLHQSQPQQQILLGESSGEDHEVKAPKKRAETWVQDETRSLIMFRRGMDGLFNTSKSNKHLWEQISSKMREKGFDRSPTMCTDKWRNLLKEFKKAKHHDRGNGSAKMSYYKEIEDILRERSKKVTPPQYNKSPNTPPTSAKVDSFMQFTDKGFDDTSISFGSVEANGRPALNLERRLDHDGHPLAITTAVDAVAANGVTPWNWRETPGNGDDSHGQPFGGRVITVKFGDYTRRIGVDGSAEAIKEVIRSAFGLRTRRAFWLEDEDQIIRCLDRDMPLGNYLLRLDDVCKTHLAGLAIRVCHYDESNQLPVHSEEKIFYTEEDYREFLARQGWSSLQVDGFRNIENMDDLQPGAVYRGVR | failed |
| MGHHHHHHSHMGRGKGPAAEEPLSLLDDMNHCYSRLRELVPGVPRGTQLSQVEILQRVIDYILDLQVV | not failed |
| MAALSNLKQCPPFSTLPDLALRHNHIPELERYPQINLNSELLANPAGQRYYGGQSFVSVNEGVLKRIARSFFNGGFWKTLEEARSPETREQAPLIAQAGDLIAQFLGLATGLRILPHTQQLSAERIAQFVETRDWLNSDVRYLAWNQHFFCLAVAGVDDVVRIYTKSSSATTATVLKSPSQTQITCMAWRPLCASEIVIGCRQGLCFWEVDSTLHLGRTNAPSEIFKYPNNLPITSMQWNKDGTQLATASIGDRSIIIWQPDTGMMQPLKRLGPPGSLLKWSPDNDWLFAATVDRVFRVWNCHQQWTTERWVCGPGGYVQTACWSPCGRFLLFVSSAEPILYRLQFVQQSLLSSSADEKEILPIADLNACSIDANRTLVGGPAQQLAWDPHGNYLVVTFKATNCIAVFRTFIQKFDLQISAAYYLSGETAAEHPSFICFQPLYEDNDRSVLTIAWSSGRIQYYAFD | failed |
| MASRSKPSVRAFARQVHLWLGLSIGVLFAVVGLTGSILVFYTAIDDALHPEIRLRGAAPPPSWEQVYQTARATYPDKAGPWRFEVTEAGGDIPARYYKPPERADRDFAPMMVWFSADGGRVIRRDYWGEYAMTWVYDLHHRLLLQATGGAILGWSGLAMLALMVAGLTAWWPRRGGWRKALQMKPRAAPLRKLYDWHKQTGLWSFGLLVLLTLTGVLLALPKESEIALRPILGPPAGAPTIDKSITFDPGTRISVDQAVAIAQGALPGARLAWIETPSTDSGVYRLRLQTPGDPSRRFPHSFVWITPATGEVLAMTDARQAGAHDVLLNWTHPLHDASAGGLPARLLAVLVGLAPSALLILGFMRWRQRLRPQERKLSDHS | failed |
| GLPVAQSTTTLIDALRTHRMAVVQAPPGTGKTTLVPPIAHNVTGGRVIVVAPRRVAVRAAAHHLVQLDQSSCDQPSTHRVGYTIRGERSRGDLVEFVTPGVLLRRLISNPELDGVSAVVVDEVHERQLDTDLVLGMLVELRELRDDLTVIAMSAT | failed |
| MRLAEGIVIEKEKTFGTLKFSALRREVKIVDDEGNVTEQVKERTFDLKKEQGRMIQVSIPASAGVKNFDYNAEVEIINPIADTVATATFQGADVDWYIKAEDIVLKRPAQNQQADQKQNHDKKLEHHHHHH | failed |
| MENVITYNNDKGLLAYIQFLASSAQKIGDGNTDRVFDFEDALDQTQMAQLAVDELKKIPEVNALFSERWLPAPFNLDDLAKLPEGTLGHVYAREMKARGFDPYFYKKVPVVDDISYLKMLWRSTHDIYHVVAGFDTNVFGEIGLQAFFLAQTPIPISVMLLSFGMVMISLYQPTNFKALMTEISRGYRVGSHTPGKLIAQKWDQLWDVQVSEIRERLGVNSIL | not failed |
| MTWLLIFASLAYVIFLFAVATWGDRLGSWANKISHKPVVYSMSLAIYCTSWTYYGAVGNAAVDGWAFFPILLGPILLFLFGIRILEKLVSVSKQQNITSIADFISSRFGKRRRLAVAVTAIAAVAIIPYIALQLKAVGISFAVLTESSGVMAQFSIKELGAAALMAIFAMLFGTRHVEVTEYRSGMILAIAVESMIKLVALLAAGVFAWFLIQGDAQSDLFSSFSDATKPQWSFAAFGEFEFIVQTLMAAGAILCLPRQFHVAVVDNVDVRHLRTARWGFPLYLALTAAAIVPIAIAGTFYLSATTDGSTFALQLPLLKDQLWLSLVIFIGGISAATAMVIIASVTLSTMITNDVIMPILLQRESRLPLKHRRREYDRALLLIRRVAIAVTMVLSFLCYYFWAARTNLVSIGLLAFSLVLQLLPALLAALYWRKGHARGVYAGLAAGSVGWVLAVLIPLYTDLQLTDVEIITRGTVVSLALNCFGFIVFSLLAKPRLVDRIQATAFVKPRAALPDLHFNKNDSATNADMLLLLRTFLGAERAQQLMQYYQRPENTELPLEGVAEKTFISFVERAIAGVLGSATARSLVDAALRDKQLNLEEVVHFFDDTTQALQTQQSILFSSLENLAQGISVVDAELRLVAWNKRYMDLFQYPEGMVKPGQPIATLIRYNAERGECGPGDVDGLVNKRLRYMQLGSAHRFIRRRADGRVIEMVGNPLPTGGFVTSFTDITSHVETQQALEDANIDLEQRVDVRTQEIREINQELTAEIDRRRQVEDELKKAKAEAEATNASKTRFLALASHDILQPLNAARLYLSAIQEKELSERNLSLVGKLDTALGSTEHLLSTLLSIAKMDQGALKPQFRHVQLSSLLEPLVEEYAVLAEQRKLDFRAFYKDRPVYTDPTYLRRIVQNFLSNAIKYTQRGSVLLGVRKRGDELQIAVWDTGPGIAAQQQNKVFDAFYRVQNQTVDGVGLGLSVAQRMGEQLNCDVQVESVEGKGSCFSVRVPLGNAAQVVSRPKKQLEDALSDPLQLIVVDDDNENLSALSALLNKWGCEALTFNRYSKALAYAKAHSQNKAPHGLLLDYQLGDGDGLQLAQELRDIWQQQIPAALVTAMRDDAVKQAARKSGLQFLPKPAKPAALKAFLKYISTRKAGGARS | failed |
| MTGQTQGKAVIARERISFWGGFDPQTGRIVDPYSSLRGRDISDCVLILLSSKGSSGTSGMLSLATRAGHAPAAMIQVEMDPVTVMGCLVNNIPLLQASGFDPFEQIQDGDLVRIDGENGTITLTPGQALEHHHHHH | failed |
